PMC7038936 (Nucleic Acids Research, 2020)
Values belong to the binder of their own block, whether it stands above or below them.

How the values were obtained:
[1] = target: XPA full length M2 (human, UniProt P23025 1-273, E106K;F112A); assay: EMSA
[2] = target: RPA70AB (UniProt P27694 181-422); assay: NMR
[3] = target: XPA globular core (XPA98-219);RPA70AB (human;human?, UniProt P23025;P27694 98-219;181-422, |); assay: NMR
[4] = target: RPA70AB (RPA70 181-422), tandem ssDNA-binding domains A and B of RPA70 (human, UniProt P27694 181-422); assay: SEC-MALS
Sequence of RPA70AB (RPA70 181-422), tandem ssDNA-binding domains A and B of RPA70 (P27694 181-422): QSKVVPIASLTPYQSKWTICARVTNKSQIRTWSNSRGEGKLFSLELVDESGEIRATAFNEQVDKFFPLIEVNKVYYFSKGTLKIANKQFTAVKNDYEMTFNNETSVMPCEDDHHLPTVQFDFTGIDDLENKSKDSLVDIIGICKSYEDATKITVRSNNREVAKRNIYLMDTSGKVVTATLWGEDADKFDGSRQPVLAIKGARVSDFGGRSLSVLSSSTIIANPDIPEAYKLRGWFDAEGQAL

Sequence of XPA globular core (XPA98-219);RPA70AB (P27694 181-422, one chain of several): as the sequence (P27694 181-422) above
Sequence of RPA70AB (P27694 181-422): as above
Sequence of XPA full length M2 (P23025 whole entry E106K/F112A): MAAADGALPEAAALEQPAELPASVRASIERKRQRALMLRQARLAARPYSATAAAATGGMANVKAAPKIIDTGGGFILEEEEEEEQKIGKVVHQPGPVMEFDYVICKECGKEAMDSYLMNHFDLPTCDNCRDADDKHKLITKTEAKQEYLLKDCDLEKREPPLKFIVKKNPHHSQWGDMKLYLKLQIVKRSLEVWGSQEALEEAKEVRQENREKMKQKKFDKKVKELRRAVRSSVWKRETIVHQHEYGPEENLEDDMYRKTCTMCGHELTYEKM

B1: FAM three-way junction (EMSA) (structured_DNA)
DNA 1: GTTCGTCAGGATTCCAATTCGTGCAGGCAT
DNA 2: ATGCCTGCACGAATTAAGCCATTCGTAATCATGGT
DNA 3: ACCATGATTACGAATGGCTTGGAATCCTGACGAAC
binding result [1]: binds

Binder: CCCCCCCC (ssDNA) [dC8]
binding result [2]: binds
binding result [3]: binds

binding result [4]: binds
B2: XPA DNA-binding domain (XPA 98-239), wild type (domain or fragment, human, UniProt P23025 98-239, looked up)
chain: MEFDYVICEECGKEFMDSYLMNHFDLPTCDNCRDADDKHKLITKTEAKQEYLLKDCDLEKREPPLKFIVKKNPHHSQWGDMKLYLKLQIVKRSLEVWGSQEALEEAKEVRQENREKMKQKKFDKKVKELRRAVRSSVWKRET
